Among the data in the Human Domainome abundance scans (Beltran et al. 2025) are abundance fitness values, retold here.

± gives the uncertainty stated by the source.

B1: Peroxisome proliferator-activated receptor delta, residues 71 to 145; numbered along this chain, Q03181 (parent)
chain: NMECRVCGDKASGFHYGVHACEGCKGFFRRTIRMKLEYEKCERSCKIQKKNRNKCQYCRFQKCLALGMSHNAIRF

The variants in this data set derive from B1. In words: abundance fitness (aPCA) (normalised: wild type 0, dead -1); higher = more abundant; growth selection in yeast, the domain comes from the species named. Particulars: Homo sapiens.
Take NMECRVCGDKAVGFHYGVHACEGCKGFFRRTIRMKLEYEKCERSCKIQKKNRNKCQYCRFQKCLALGMSHNAIRF: the abundance fitness is -0.222 ± 0.045.

As to NMECRVCGDKAWGFHYGVHACEGCKGFFRRTIRMKLEYEKCERSCKIQKKNRNKCQYCRFQKCLALGMSHNAIRF, the abundance fitness was -0.579 ± 0.079.

With NMECRVCGDKAYGFHYGVHACEGCKGFFRRTIRMKLEYEKCERSCKIQKKNRNKCQYCRFQKCLALGMSHNAIRF, the abundance fitness was -0.138 ± 0.072.

NMECRVCGDKARGFHYGVHACEGCKGFFRRTIRMKLEYEKCERSCKIQKKNRNKCQYCRFQKCLALGMSHNAIRF: the abundance fitness was -0.351 ± 0.046.

As for NMECRVCGDKAQGFHYGVHACEGCKGFFRRTIRMKLEYEKCERSCKIQKKNRNKCQYCRFQKCLALGMSHNAIRF, the abundance fitness is -0.115 ± 0.057.

For NMECRVCGDKATGFHYGVHACEGCKGFFRRTIRMKLEYEKCERSCKIQKKNRNKCQYCRFQKCLALGMSHNAIRF, the abundance fitness is -0.06 ± 0.048.

For NMECRVCGDKASGFVYGVHACEGCKGFFRRTIRMKLEYEKCERSCKIQKKNRNKCQYCRFQKCLALGMSHNAIRF, the abundance fitness is -0.238 ± 0.043.

As for NMECRVCGDKASGFSYGVHACEGCKGFFRRTIRMKLEYEKCERSCKIQKKNRNKCQYCRFQKCLALGMSHNAIRF, the abundance fitness was -0.117 ± 0.041.

As for NMECRVCGDKASGFPYGVHACEGCKGFFRRTIRMKLEYEKCERSCKIQKKNRNKCQYCRFQKCLALGMSHNAIRF, the abundance fitness was -0.242 ± 0.055.

For the variant NMECRVCGDKASGFQYGVHACEGCKGFFRRTIRMKLEYEKCERSCKIQKKNRNKCQYCRFQKCLALGMSHNAIRF, the abundance fitness is -0.188 ± 0.066.

With NMECRVCGDKASGFGYGVHACEGCKGFFRRTIRMKLEYEKCERSCKIQKKNRNKCQYCRFQKCLALGMSHNAIRF, the abundance fitness is -0.285 ± 0.039.

As to NMECRVCGDKASGFAYGVHACEGCKGFFRRTIRMKLEYEKCERSCKIQKKNRNKCQYCRFQKCLALGMSHNAIRF, the abundance fitness was -0.116 ± 0.042.

For the variant NMECRVCGDKASGFCYGVHACEGCKGFFRRTIRMKLEYEKCERSCKIQKKNRNKCQYCRFQKCLALGMSHNAIRF, the abundance fitness is -0.044 ± 0.066.

Turning to NMECRVCGDKASGFKYGVHACEGCKGFFRRTIRMKLEYEKCERSCKIQKKNRNKCQYCRFQKCLALGMSHNAIRF, the abundance fitness is -0.61 ± 0.11.

In the case of NMECRVCGDKASGFFYGVHACEGCKGFFRRTIRMKLEYEKCERSCKIQKKNRNKCQYCRFQKCLALGMSHNAIRF, the abundance fitness is -0.006 ± 0.069.

With NMECRVCGDKASGFEYGVHACEGCKGFFRRTIRMKLEYEKCERSCKIQKKNRNKCQYCRFQKCLALGMSHNAIRF, the abundance fitness is -0.025 ± 0.045.

Turning to NMECRVCGDKASGFDYGVHACEGCKGFFRRTIRMKLEYEKCERSCKIQKKNRNKCQYCRFQKCLALGMSHNAIRF, the abundance fitness is -0.027 ± 0.05.

NMECRVCGDKASGFMYGVHACEGCKGFFRRTIRMKLEYEKCERSCKIQKKNRNKCQYCRFQKCLALGMSHNAIRF: the abundance fitness is -0.125 ± 0.05.

For NMECRVCGDKASGFIYGVHACEGCKGFFRRTIRMKLEYEKCERSCKIQKKNRNKCQYCRFQKCLALGMSHNAIRF, the abundance fitness was -0.154 ± 0.076.

As to NMECRVCGDKASGFYYGVHACEGCKGFFRRTIRMKLEYEKCERSCKIQKKNRNKCQYCRFQKCLALGMSHNAIRF, the abundance fitness is -0.088 ± 0.061.

With NMECRVCGDKASGFNYGVHACEGCKGFFRRTIRMKLEYEKCERSCKIQKKNRNKCQYCRFQKCLALGMSHNAIRF, the abundance fitness was -0.341 ± 0.12.

As to NMECRVCGDKASGFTYGVHACEGCKGFFRRTIRMKLEYEKCERSCKIQKKNRNKCQYCRFQKCLALGMSHNAIRF, the abundance fitness was -0.174 ± 0.047.

In the case of NMECRVCGDKASGFRYGVHACEGCKGFFRRTIRMKLEYEKCERSCKIQKKNRNKCQYCRFQKCLALGMSHNAIRF, the abundance fitness was -0.595 ± 0.057.

Consider NMECRVCGDKASCFHYGVHACEGCKGFFRRTIRMKLEYEKCERSCKIQKKNRNKCQYCRFQKCLALGMSHNAIRF, for which the abundance fitness is -0.596 ± 0.12.

Regarding NMECRVCGDKASLFHYGVHACEGCKGFFRRTIRMKLEYEKCERSCKIQKKNRNKCQYCRFQKCLALGMSHNAIRF, the abundance fitness is -0.48 ± 0.055.

Regarding NMECRVCGDKASHFHYGVHACEGCKGFFRRTIRMKLEYEKCERSCKIQKKNRNKCQYCRFQKCLALGMSHNAIRF, the abundance fitness is -0.545 ± 0.12.

NMECRVCGDKASDFHYGVHACEGCKGFFRRTIRMKLEYEKCERSCKIQKKNRNKCQYCRFQKCLALGMSHNAIRF: the abundance fitness was -0.103 ± 0.056.

With NMECRVCGDKASNFHYGVHACEGCKGFFRRTIRMKLEYEKCERSCKIQKKNRNKCQYCRFQKCLALGMSHNAIRF, the abundance fitness was -0.01 ± 0.069.

Take NMECRVCGDKASPFHYGVHACEGCKGFFRRTIRMKLEYEKCERSCKIQKKNRNKCQYCRFQKCLALGMSHNAIRF: the abundance fitness was -0.363 ± 0.079.

With NMECRVCGDKASQFHYGVHACEGCKGFFRRTIRMKLEYEKCERSCKIQKKNRNKCQYCRFQKCLALGMSHNAIRF, the abundance fitness was -0.322 ± 0.077.

In the case of NMECRVCGDKASIFHYGVHACEGCKGFFRRTIRMKLEYEKCERSCKIQKKNRNKCQYCRFQKCLALGMSHNAIRF, the abundance fitness was -0.324 ± 0.13.

As for NMECRVCGDKASYFHYGVHACEGCKGFFRRTIRMKLEYEKCERSCKIQKKNRNKCQYCRFQKCLALGMSHNAIRF, the abundance fitness is -0.385 ± 0.096.

With NMECRVCGDKASRFHYGVHACEGCKGFFRRTIRMKLEYEKCERSCKIQKKNRNKCQYCRFQKCLALGMSHNAIRF, the abundance fitness was -0.427 ± 0.045.

Take NMECRVCGDKASFFHYGVHACEGCKGFFRRTIRMKLEYEKCERSCKIQKKNRNKCQYCRFQKCLALGMSHNAIRF: the abundance fitness is -0.838 ± 0.17.

NMECRVCGDKASSFHYGVHACEGCKGFFRRTIRMKLEYEKCERSCKIQKKNRNKCQYCRFQKCLALGMSHNAIRF: the abundance fitness is -0.212 ± 0.048.

With NMECRVCGDKASMFHYGVHACEGCKGFFRRTIRMKLEYEKCERSCKIQKKNRNKCQYCRFQKCLALGMSHNAIRF, the abundance fitness is -0.431 ± 0.079.
